In patent US20250066490A1, “ANTI-CD70 ANTIBODIES, CONJUGATES THEREOF AND METHODS OF USING THE SAME” (ProfoundBio US Co., priority 2021, published 2025):

Tests used:
[1] = Hydrophobic interaction chromatography (HIC); assay type: physicochemical; conditions: full IgG
[2] = system: Raji cells; assay: Internalization time course, Raji; assay type: cell-based, human; conditions: up to 4 hr, FIG. 13
Protocol: Four cell lines ([…]), Caki-1, Raji, MCF-7) were utilized in the internalization assay. Target (CD70) copy numbers were determined via the QIFIKIT (DAKO, K0078). Briefly, cells were labeled with a primary mouse monoclonal antibody against CD70. Cells, Set-up beads, Calibration beads (from the kit) were then labeled in parallel with a fluorescein-conjugated anti-mouse secondary antibody. The fluorescence is correlated with the number of bound primary antibody molecules on the cells and on the beads. Samples were subsequently analyzed on the flow cytometer and copy number determined based on the calibration curve (Table 11). For internalization assay, 3×10^5 cells were incubated at 4° C. for 30 min with 10 µg/ml 2E7 in FACS buffer (1×PBS containing 0.1% BSA). Cells were washed at 4° C. to remove unbound material and kept on ice or shifted to 37° C. for different lengths of time. At progressive timepoints ([…], 0.5, 1, 2, 3, 4 hr) cells were stained with PE-conjugated anti-human Fc for 30 min at 4° C. and analyzed by flow cytometry. Internalization rate were calculated by subtracting the mean fluorescence intensity (MFI) of cell surface-bound antibody at 37° C. at each time point from the MFI of cell surface-bound antibody at 4° C. at time 0, then divided by the MFI of the cell surface-bound antibody at 4° C. at time 0.

[3] = molecular target: T1, rat CD70 extra-cellular domain (ECD) (Rattus norvegicus, UniProt M0R613); assay: Biolayer interferometry (BLI), rat CD70; assay type: binding; conditions: for Response: *Response below range of quantification
T1 construct: human, rat, or mouse CD70 extra-cellular domain (ECD) linked to His tag; His tag; purchased ACRO systems
T1 sequence (M0R613 1-194): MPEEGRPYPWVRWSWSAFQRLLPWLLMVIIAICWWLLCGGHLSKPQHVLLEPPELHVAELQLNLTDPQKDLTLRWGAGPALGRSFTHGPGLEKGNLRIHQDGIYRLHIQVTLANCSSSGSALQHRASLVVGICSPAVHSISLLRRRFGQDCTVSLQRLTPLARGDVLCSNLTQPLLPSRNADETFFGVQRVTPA
Protocol: (§1) Recombinant proteins consisting of human, rat, or mouse CD70 extra-cellular domain (ECD) linked to His tag was purchased (from ACRO systems). 69A7 and 2E7 (20 nM) were immobilized on anti-human IgG Fc biosensor tips (ForteBio). Binding assays using one concentration (100 nM) of recombinant protein in solution were performed using Octet RED (ForteBio). Association time was set at 180s and dissociation time was set at 300s. Binding affinity was calculated using ForteBio Data Acquisition 6.3 software. Affinity was derived by fitting the kinetic data to a 1:1 Langmuir binding model utilizing global fitting algorithms. […] Binding assays for 2E7 using multiple dilutions (from 200 nM down to 3.13 nM) of species' recombinant CD70 ECD proteins in solution were also performed using the same method.

[4] = molecular target: T2, mouse CD70 extra-cellular domain (ECD) (Mus musculus, UniProt O55237); assay: Biolayer interferometry (BLI), mouse CD70; assay type: binding; conditions: for Response: *Response below range of quantification
T2 construct: human, rat, or mouse CD70 extra-cellular domain (ECD) linked to His tag; His tag; purchased ACRO systems
T2 sequence (O55237 45-195): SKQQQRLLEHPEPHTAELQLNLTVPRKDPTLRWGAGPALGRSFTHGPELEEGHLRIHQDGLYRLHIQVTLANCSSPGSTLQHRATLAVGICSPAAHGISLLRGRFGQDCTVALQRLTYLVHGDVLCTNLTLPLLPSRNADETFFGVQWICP
Protocol: as §1

[5] = molecular target: T3, CD70 ECD (Homo sapiens, UniProt P32970); assay: Biacore affinity measurement on immobilized CD70 ECD; assay type: binding
T3 sequence (P32970 39-193 limits assumed): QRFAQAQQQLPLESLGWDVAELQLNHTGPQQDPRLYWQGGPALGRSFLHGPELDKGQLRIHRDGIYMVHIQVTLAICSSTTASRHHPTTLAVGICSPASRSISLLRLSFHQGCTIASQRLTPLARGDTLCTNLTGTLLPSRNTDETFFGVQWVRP

[6] = one concentration (100 nM), Table 9

B1: 2E7: anti-CD70 antibody clone, VH SEQ 7 and VL SEQ 8; tested as scFv and full human IgG1/kappa (antibody, V domains shown)
VH: QVQLQESGPGLVKPSETLSLTCTVSGGSVSSDYYYWSWIRQPPGKGLEWLGYIYYSGSTNYNPSLKSRVTISVDTSKNQFSLKLRSVTTADTAVYYCARGDGDFLGVCFDYWGQGTLVTVSS
VL: EIVLTQSPATLSLSPGERATLSCRASQSVSSYLAWYQQKPGQAPRLLIFDASNRATGIPARFSGSGSGTDFTLTISSLEPEDFAVYYCQQRSNWPLTFGGGTKVEIK
modifications: Synthetic 2E7 VH amino acid sequence; Synthetic 2E7 VL amino acid sequence
notes: tested as scFv and full human IgG1/kappa
- hydrophobicity compared with the parent antibody 69A7 ([1]; HIC): slightly more hydrophobic than the parent antibody 69A7
- Retention time ([1]; hydrophobicity by HIC): 10.19 min
- internalization, time course [2]: rapid internalization
- Response ([3]; RAT CD70 3.13 nM): *0.0012
- Response ([3]; RAT CD70 6.25 nM): *0.0192
- Response ([3]; RAT CD70 12.5 nM): *−2.762E−03
- Response ([3]; RAT CD70 25 nM): *0.0069
- Response ([3]; RAT CD70 50 nM): *0.0126
- Response ([3]; RAT CD70 100 nM, dilution series): *0.0271
- Response ([3]; RAT CD70 200 nM): *0.0054
- ka ([3]; RAT CD70, multiple dilutions 200-3.13 nM, global fit, responses below range of quantification): 5.905e+06 M⁻¹ s⁻¹
- Response ([3]; Rat CD70 100 nM, one concentration): *0.0125
- ka ([3]; Rat CD70 100 nM, one concentration, response below range of quantification): 4641 M⁻¹ s⁻¹
- cross-reactivity to rat CD70 ([3]; multiple dilutions, Table 10): no cross-reactivity
- cross-reactivity to rat CD70 [3, 6]: no cross-reactivity
- Response ([4]; MOUSE CD70 3.13 nM): *−6.014E−03
- Response ([4]; MOUSE CD70 6.25 nM): *−5.879E−03
- Response ([4]; MOUSE CD70 12.5 nM): *−1.516E−03
- Response ([4]; MOUSE CD70 25 nM): *−3.009E−03
- Response ([4]; MOUSE CD70 50 nM): *0.0063
- Response ([4]; MOUSE CD70 100 nM, dilution series): *0.0111
- Response ([4]; MOUSE CD70 200 nM): *0.0012
- ka ([4]; MOUSE CD70, multiple dilutions 200-3.13 nM, global fit, responses below range of quantification): 117000 M⁻¹ s⁻¹
- Response ([4]; MS CD70 100 nM, one concentration): *0.0045
- ka ([4]; MS CD70 100 nM, one concentration, response below range of quantification): 3250 M⁻¹ s⁻¹
- cross-reactivity to mouse CD70 ([4]; multiple dilutions, Table 10): no cross-reactivity
- cross-reactivity to mouse CD70 [4, 6]: no cross-reactivity
- affinity to CD70 antigen, fold greater than the reference antibody h1F6 [5]: 2-3 fold
- Rmax (RU) ([5]; 25° C., CD70 immobilized): 32.94 RU
- ka ([5]; 25° C., CD70 immobilized): 75400 M⁻¹ s⁻¹
- kd ([5]; 25° C., CD70 immobilized): 0.00106 s⁻¹
